In article PMC8303963, “Action of Multiple Rice β-Glucosidases on Abscisic Acid Glucose Ester” (International Journal of Molecular Sciences, 2021):

System: T1, CC1=CC(=O)CC(C)(C)[C@@]1(O)/C=C/C(C)=C\C(=O)O[C@@H]1O[C@H](CO)[C@@H](O)[C@H](O)[C@H]1O
T1 construct: recombinant from E. coli, IMAC purified; N-terminal thioredoxin and His6 tags cut off with enterokinase
Assay: glucose release by peroxidase/glucose oxidase assay, Michaelis-Menten fit
Type: biochemical, Oryza sativa
Details: 50 mM sodium acetate pH 5, 30 °C
Description: glucose release by peroxidase/glucose oxidase assay, Michaelis-Menten fit on Os4BGlu13

Os4BGlu13 (Oryza sativa Japonica Group), sequence (chain, as listed by the source): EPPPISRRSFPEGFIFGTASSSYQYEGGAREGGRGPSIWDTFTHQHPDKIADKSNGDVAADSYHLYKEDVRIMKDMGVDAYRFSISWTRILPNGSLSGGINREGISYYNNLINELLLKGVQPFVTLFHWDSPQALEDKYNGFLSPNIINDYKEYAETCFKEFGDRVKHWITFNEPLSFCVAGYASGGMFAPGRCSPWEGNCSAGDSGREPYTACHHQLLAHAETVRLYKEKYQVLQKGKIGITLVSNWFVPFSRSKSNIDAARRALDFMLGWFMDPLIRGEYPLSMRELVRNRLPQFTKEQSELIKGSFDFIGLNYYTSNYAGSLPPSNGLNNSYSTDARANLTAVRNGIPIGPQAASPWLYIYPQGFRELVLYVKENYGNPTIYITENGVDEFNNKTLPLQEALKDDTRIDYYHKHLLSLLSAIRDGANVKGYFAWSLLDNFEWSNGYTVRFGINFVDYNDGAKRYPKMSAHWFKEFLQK

How did the Km turn out when Os4BGlu13 (Oryza sativa Japonica Group) was run?
Its Km is 1660 ± 90 µM.

What about the kcat of the same substance?
The kcat was 20.6 ± 0.5 s⁻¹.

What about the kcat/Km of the same substance?
The kcat/Km was 12400 M⁻¹ s⁻¹.
